Laboratory results from the supplement of paper PMC10724198.
± gives the standard deviation of the averaged measurements.

System: Saccharomyces cerevisiae
Assay: protein stability index of tFT-peptide fusion (C-terminal peptide) (PSI (0-1 scale)); higher = more stable (slower turnover)
Settings: temperature: 30 C
Method: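 MPS profiling in S. cerevisiae of the yeast C-terminome library: the last 12 aa of each annotated ORF are fused to the C-terminus of a sfGFP-mCherry timer, after a GGGS linker. Cells are FACS-sorted into 8 mCherry/sfGFP bins and deep-sequenced. PSI runs from 0 (unstable) to 1 (stable); wild type and das1Δ backgrounds, two technical replicates each.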

[1] = genetic background: das1 deletion

Row | Sequence | protein stability index [1] | protein stability index (genetic background: wild type)
1 | NKTICLRNYHWL [YIR017W-A C-terminal 12 aa] | 0.702 ± 0.012 | 0.607 ± 0.0078
2 | NLKLKFNENIME [DIT2 C-terminal 12 aa] | 0.695 ± 0.033 | 0.639 ± 0.0087
3 | NLLLSGSLYQKN [BUD28 C-terminal 12 aa] | 0.751 ± 0.011 | 0.672 ± 0.036
4 | NMEKFVRKCWKD [MKK1 C-terminal 12 aa] | 0.691 ± 0.059 | 0.73796 ± 0.00058
5 | NQVKLNQLLVGN [CSE1 C-terminal 12 aa] | 0.627 ± 0.038 | 0.641 ± 0.0068
6 | NTLLSPSRKDNS [MVB12 C-terminal 12 aa] | 0.705 ± 0.0098 | 0.698 ± 0.034
7 | NVAAAEASKKGN [YET1 C-terminal 12 aa] | 0.728 ± 0.033 | 0.685 ± 0.053
8 | NVDDAYSRVFGI [MPS2 C-terminal 12 aa] | 0.719 ± 0.011 | 0.673 ± 0.025
9 | NVEDEYSYSLTL [VPS68 C-terminal 12 aa] | 0.701 ± 0.0071 | 0.706 ± 0.066
10 | NVGNNEETLDDH [RAD34 C-terminal 12 aa] | 0.726 ± 0.047 | 0.701 ± 0.067
11 | NVWDWNNWTSAT [GAL11 C-terminal 12 aa] | 0.7485 ± 0.006 | 0.767 ± 0.012
12 | NYESVEVPAANN [YML018C C-terminal 12 aa] | 0.682 ± 0.0077 | 0.7097 ± 0.0019
13 | PARESMLHKEIK [ADE12 C-terminal 12 aa] | 0.745 ± 0.011 | 0.668 ± 0.011
14 | PCYSDAPPRFMC [YER152W-A C-terminal 12 aa] | 0.701 ± 0.034 | 0.287 ± 0.0035
15 | PDMIEELDLHED [GPD1 C-terminal 12 aa] | 0.716 ± 0.031 | 0.749 ± 0.1
16 | PDYKSNTQILVL [YOL155W-A C-terminal 12 aa] | 0.56446 ± 0.00018 | 0.584 ± 0.029
17 | PEEETNWFSGHG [PRP31 C-terminal 12 aa] | 0.745 ± 0.032 | 0.73 ± 0.025
18 | PEMIEELDIDDE [GPD2 C-terminal 12 aa] | 0.707 ± 0.018 | 0.658 ± 0.015
19 | PEYDQVKQNNKE [YLR041W C-terminal 12 aa] | 0.691 ± 0.023 | 0.676 ± 0.03
20 | PFNRNVSDKLKK [VAC14 C-terminal 12 aa] | 0.733 ± 0.038 | 0.713 ± 0.063
21 | PGVMLGRWKVTA [VPS61 C-terminal 12 aa] | 0.612 ± 0.013 | 0.356 ± 0.0069

Row | Sequence | protein stability index [1] | protein stability index (genetic background: wild type)
22 | PGWDFNVQIFAI [HRD3 C-terminal 12 aa] | 0.618 ± 0.005 | 0.607 ± 0.0086
23 | PIICASVTFLPT [YAL056C-A C-terminal 12 aa] | 0.6572 ± 0.00082 | 0.629 ± 0.026
24 | PIKGGDKASSEL [ATG5 C-terminal 12 aa] | 0.679 ± 0.0085 | 0.6877 ± 0.0045
25 | PILSQEVDRWRL [GAC1 C-terminal 12 aa] | 0.732 ± 0.011 | 0.744 ± 0.018
26 | PIRGVTGGVYKW [MRPL22 C-terminal 12 aa] | 0.71 ± 0.012 | 0.702 ± 0.02
27 | PKALFQSRDQEH [SIC1 C-terminal 12 aa] | 0.724 ± 0.022 | 0.702 ± 0.014
28 | PKIGILHNYLYL [YFT2 C-terminal 12 aa] | 0.698 ± 0.015 | 0.654 ± 0.0094
29 | PLLLVSHLNFAV [YIR020C-B C-terminal 12 aa] | 0.673 ± 0.0087 | 0.557 ± 0.033
30 | PLVHEVNGNEGK [DUF1 C-terminal 12 aa] | 0.68 ± 0.011 | 0.716 ± 0.076
31 | PNAIRGIKAKKA [COX7 C-terminal 12 aa] | 0.723 ± 0.011 | 0.675 ± 0.046
32 | PPVPEVPQEYTQ [TCB3 C-terminal 12 aa] | 0.722 ± 0.014 | 0.709 ± 0.041
33 | PSLRTRSSYTEE [FLR1 C-terminal 12 aa] | 0.6845 ± 0.0013 | 0.717 ± 0.043
34 | PTCETTIDIDRI [ZRG17 C-terminal 12 aa] | 0.687 ± 0.0087 | 0.65 ± 0.0076
35 | QDGIKEAASALA [INO80 C-terminal 12 aa] | 0.6794 ± 0.0025 | 0.665 ± 0.04
36 | QDKRSSQAIDVL [MMS21 C-terminal 12 aa] | 0.688 ± 0.015 | 0.6684 ± 0.0019
37 | QEGNRMCIWMSG [YFL015C C-terminal 12 aa] | 0.7 ± 0.0079 | 0.7 ± 0.011
38 | QEGTFKRLALPA [THI11 C-terminal 12 aa] | 0.639 ± 0.013 | 0.65426 ± 7.7e-05
39 | QEKEHKKHTVAR [CAJ1 C-terminal 12 aa] | 0.694 ± 0.011 | 0.672 ± 0.014
40 | QFLFTGRQKNYV [ERP2 C-terminal 12 aa] | 0.718 ± 0.017 | 0.718 ± 0.024
41 | QFWKNTPKVEQK [HOC1 C-terminal 12 aa] | 0.71 ± 0.024 | 0.695 ± 0.019
42 | QGALDSLLNGDV [DSK2 C-terminal 12 aa] | 0.685 ± 0.03 | 0.701 ± 0.019

Row | Sequence | protein stability index [1] | protein stability index (genetic background: wild type)
43 | QGKAFYDRIKDL [RFS1 C-terminal 12 aa] | 0.683 ± 0.013 | 0.255 ± 0.025
44 | QGKVRLWKLNHY [UTP18 C-terminal 12 aa] | 0.7 ± 0.021 | 0.616 ± 0.025
45 | QIDKYMDLFTEG [PDH1 C-terminal 12 aa] | 0.7253 ± 0.0065 | 0.7354 ± 0.0063
46 | QIVEEWIVSTEA [CLB4 C-terminal 12 aa] | 0.623 ± 0.012 | 0.63 ± 0.023
47 | QIVNSTPVFTWC [LSB6 C-terminal 12 aa] | 0.653 ± 0.03 | 0.652 ± 0.034
48 | QKRSCFFLANIH [YKL183C-A C-terminal 12 aa] | 0.661 ± 0.01 | 0.608 ± 0.027
49 | QLENKLEILKQK [SPC19 C-terminal 12 aa] | 0.699 ± 0.052 | 0.7259 ± 0.0072
50 | QLLNLLVKISQL [RFC2 C-terminal 12 aa] | 0.677 ± 0.032 | 0.18 ± 0.0089
51 | QNLLPAEKFTHN [CTR1 C-terminal 12 aa] | 0.6962 ± 0.0032 | 0.663 ± 0.0075
52 | QPKKKRKKSILH [SPP41 C-terminal 12 aa] | 0.749 ± 0.061 | 0.672 ± 0.05
53 | QPLLPCFFRRAV [YER147C-A C-terminal 12 aa] | 0.691 ± 0.011 | 0.4308 ± 0.0042
54 | QQLQSPTAPPTE [COX14 C-terminal 12 aa] | 0.727 ± 0.008 | 0.694 ± 0.038
55 | QQSESLPQQTTA [PIL1 C-terminal 12 aa] | 0.7046 ± 0.0038 | 0.737 ± 0.049
56 | QRIEGMLQLLTS [UTP15 C-terminal 12 aa] | 0.715 ± 0.025 | 0.64093 ± 0.00026
57 | QSLYKDATSHWL [GYP1 C-terminal 12 aa] | 0.7085 ± 0.0033 | 0.6825 ± 0.0036
58 | QSVAILDGKLVW [YGL258W-A C-terminal 12 aa] | 0.677 ± 0.015 | 0.65 ± 0.021
59 | QTLAPVPYETFI [RPL21A C-terminal 12 aa] | 0.718 ± 0.01 | 0.728 ± 0.013
60 | QVVAIIKKAYEY [ADH4 C-terminal 12 aa] | 0.707 ± 0.0071 | 0.679 ± 0.015
61 | QYKNKLAKNVVL [ARB1 C-terminal 12 aa] | 0.675 ± 0.012 | 0.6797 ± 0.0058
62 | QYTQRVGRPNFE [YGR226C C-terminal 12 aa] | 0.7078 ± 0.0012 | 0.674 ± 0.026
63 | RARPRTANRQHM [CCT2 C-terminal 12 aa] | 0.68332 ± 0.0002 | 0.6991 ± 0.005

Row | Sequence | protein stability index [1] | protein stability index (genetic background: wild type)
64 | RDLLRDDKVALI [SLD5 C-terminal 12 aa] | 0.715 ± 0.023 | 0.6977 ± 0.0027
65 | REENAHLETYKV [HRK1 C-terminal 12 aa] | 0.7 ± 0.0068 | 0.694 ± 0.016
66 | RERALKVYKDAM [PHR1 C-terminal 12 aa] | 0.6824 ± 0.004 | 0.657 ± 0.0079
67 | RFQDGTSVVSIM [SMC2 C-terminal 12 aa] | 0.695 ± 0.011 | 0.6814 ± 0.006
68 | RHISRLSRLLCR [YGR273C C-terminal 12 aa] | 0.6071 ± 0.00082 | 0.621 ± 0.027
69 | RINQDIKKVKLL [EMP46 C-terminal 12 aa] | 0.6957 ± 0.0047 | 0.145 ± 0.016
70 | RKAVDALRSLTN [ACK1 C-terminal 12 aa] | 0.719 ± 0.051 | 0.722 ± 0.045
71 | RKVVFERMETLE [MRPS16 C-terminal 12 aa] | 0.6857 ± 0.0044 | 0.683 ± 0.031
72 | RLGDVLRVCCPS [YFL065C C-terminal 12 aa] | 0.627 ± 0.0072 | 0.668 ± 0.0092
73 | RLKLDYSLIFPQ [MEI5 C-terminal 12 aa] | 0.7 ± 0.01 | 0.72 ± 0.038
74 | RLLSLAQPPVNF [YER165C-A C-terminal 12 aa] | 0.7584 ± 0.0037 | 0.703 ± 0.04
75 | RQCEDTNFGFKI [YDL242W C-terminal 12 aa] | 0.6949 ± 0.0057 | 0.688 ± 0.039
76 | RQEYKFKKSLLT [YKL131W C-terminal 12 aa] | 0.679 ± 0.018 | 0.625 ± 0.012
77 | RQMTSSFFLVFA [YDR118W-A C-terminal 12 aa] | 0.51187 ± 0.00022 | 0.508 ± 0.017
78 | RQNTLSLWRYRK [RPL15A C-terminal 12 aa] | 0.682 ± 0.0084 | 0.682 ± 0.039
79 | RQTRNQTKELDS [DPB11 C-terminal 12 aa] | 0.703 ± 0.033 | 0.691 ± 0.037
80 | RRGDMCDVKENI [PUS7 C-terminal 12 aa] | 0.6678 ± 0.0015 | 0.677 ± 0.031
81 | RRHYSNEDSSFL [APC9 C-terminal 12 aa] | 0.7169 ± 0.0022 | 0.689 ± 0.036
82 | RRPAVIKALRGE [URE2 C-terminal 12 aa] | 0.6904 ± 0.00095 | 0.693 ± 0.023
